Data as given in patent US20150147272A1, “RADIO-PHARMACEUTICAL COMPLEXES” (Algeta ASA, priority 2012, published 2015).

Columns and labels:
[1] = biological target: T1, CD33-positive HL-60 cells (Homo sapiens, UniProt P20138); assay: Binding to CD33-positive HL-60 cells by flow cytometry; settings: compared with AGC0700
T1 construct: endogenous in cells; host or cells: HL-60 cells
Method: Binding to CD33-positive HL-60 cells were studied by flow cytometry. The determination of EC50 based on the plotted curve gives an approximate value for the affinity. The commercially available mouse anti human CD33 (BD Pharmingen; #555450, 1 mg/mL) was used as a reference antibody for assessment of the affinity, including a setup with a 50:50 mixture with the mAb to be analyzed. This assay was also used to confirm that target binding affinity was not negatively affected by conjugation with the chelator.
HL-60 cells were grown in Iscove's Modified Dulbecco's Medium (IMDM; Invitrogen; #12440-046) in the presence of 20% of fetal bovine serum and penicillin/streptomycin. Approximately 20 mL cell culture was harvested by centrifugation at 4° C. for 5 min at 300 g. […] Subsequently, 20 μL of the preparation of resuspended cells was diluted 1:500 in Coulter Isoton II Diluent, and counted using a Beckman Coulter Z2 instrument (Beckman Coulter; CA, USA). […]
The mAb or conjugate to be analyzed was prepared fresh form frozen stock by shifting the storage buffer to PBS, kept at 4° C., and used within a few days after preparation. […] All samples were analysed in 96-well round or conical bottom plates. Fluorescent signals were recorded on a Beckham Coulter Cell lab Quant SC flow cytometer (Beckman Coulter; CA, USA). […]

[2] = tested on: CD33 positive HL-60 cells; assay: Th-227-induced in vitro cell cytotoxicity (CellTiter-Glo ATP viability); assay type: cell-based, human; settings: 3 nM or 0.3 nM, specific activity 44 kBq/μg, followed to day 7
Method: In vitro cell cytotoxicity was investigated in CD33 positive HL-60 cells. AGC0715 and the control trastuzumab conjugated AGC0015 were used to chelate Th-227 to a specific activity of 44 kBq/μg. HL-60 cells were grown at 37° C. with 5% CO2, and split 1:5 three times a week. The day before the assay the culture medium (Iscove's Modified Dulbecco's Medium (IMDM) with 20% FBS and 1% Penicillin/Streptomycin) was replaced by new medium and the volume adjusted to give 400 000 cells per mL.
About, 1 600 000 cell (4 mL) were added to each well in a 6 well plate. The plate was incubated until next day for addition of labelled mAb, or culture medium. After adding labelled mAb, or culture medium, the plate was incubated for 4 additional hours. In one experiment AGC0715 or trastuzumab-AGC0015 was added to each well to a final concentration of 3 nM. In another experiment the final concentration was 0.3 nM.
Following incubation, the cells were washed twice in culture medium, and the ATP in the supernatant and in the pellet was measured. The cells were then split 1:2 and incubated in culture medium at 37° C. with 5% CO2. The same procedure, but with only one wash, was repeated at days 2, 4, and 7.

T1 sequence (P20138 18-364): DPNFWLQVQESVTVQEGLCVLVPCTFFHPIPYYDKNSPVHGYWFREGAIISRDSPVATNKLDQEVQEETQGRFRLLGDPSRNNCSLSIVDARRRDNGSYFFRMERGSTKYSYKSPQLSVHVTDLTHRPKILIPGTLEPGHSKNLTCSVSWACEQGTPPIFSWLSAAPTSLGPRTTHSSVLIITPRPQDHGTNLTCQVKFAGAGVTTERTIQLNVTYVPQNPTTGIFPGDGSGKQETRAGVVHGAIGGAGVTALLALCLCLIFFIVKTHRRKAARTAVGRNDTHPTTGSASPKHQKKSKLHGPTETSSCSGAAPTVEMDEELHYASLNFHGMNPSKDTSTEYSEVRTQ

| binding affinity [1] | Molecule | cellular toxicity (cell viability by ATP) [2] |
| --- | --- | --- |
| comparable to the non-conjugated AGC0700 | AGC0715: AGC0700 conjugated to the water soluble chelator AGC0015 (12) (conjugate, chelator AGC0015 (12) conjugated; site not stated; none, one or two chelators on a chain) heavy: QVQLVQSGAEVKKPGSSVKVSCKASGYTFTDYNMHWVRQAPGQGLEWIGYIYPYNGGTGYNQKFKSKATITADESTNTAYMELSSLRSEDTAVYYCARGRPAMDYWGQGTLVTVSSASTKGPSVFPLAPSSKSTSGGTAALGCLVKDYFPEPVTVSWNSGALTSGVHTFPAVLQSSGLYSLSSVVTVPSSSLGTQTYICNVNHKPSNTKVDKKVEPKSCDKTHTCPPCPAPELLGGPSVFLFPPKPKDTLMISRTPEVTCVVVDVSHEDPEVKFNWYVDGVEVHNAKTKPREEQYNSTYRVVSVLTVLHQDWLNGKEYKCKVSNKALPAPIEKTISKAKGQPREPQVYTLPPSRDELTKNQVSLTCLVKGFYPSDIAVEWESNGGQPENNYKTTPPVLDSDGSFFLYSKLTVDKSRWQQGNVFSCSVMHEALHNHYTQKSLSLSPG light: DIQMTQSPSSLSASVGDRVTITCRASESVDNYGISFMNWFQQKPGKAPKLLIYAASNQGSGVPSRFSGSGSGTDFTLTISSLQPDDFATYYCQQSKEVPWTFGQGTKVEIKRTVAAPSVFIFPPSDEQLKSGTASVVCLLNNFYPREAKVQWKVDNALQSGNSQESVTEQDSKDSTYSLSSTLTLSKADYEKHKVYACEVTHQGLSSPVTKSFNRGEC |  |
|  | AGC0715-Th-227: antibody-conjugate AGC0715 chelated with Th-227 (conjugate, chelator AGC0015 (12) conjugated, chelating Th-227; site not stated) heavy: QVQLVQSGAEVKKPGSSVKVSCKASGYTFTDYNMHWVRQAPGQGLEWIGYIYPYNGGTGYNQKFKSKATITADESTNTAYMELSSLRSEDTAVYYCARGRPAMDYWGQGTLVTVSSASTKGPSVFPLAPSSKSTSGGTAALGCLVKDYFPEPVTVSWNSGALTSGVHTFPAVLQSSGLYSLSSVVTVPSSSLGTQTYICNVNHKPSNTKVDKKVEPKSCDKTHTCPPCPAPELLGGPSVFLFPPKPKDTLMISRTPEVTCVVVDVSHEDPEVKFNWYVDGVEVHNAKTKPREEQYNSTYRVVSVLTVLHQDWLNGKEYKCKVSNKALPAPIEKTISKAKGQPREPQVYTLPPSRDELTKNQVSLTCLVKGFYPSDIAVEWESNGGQPENNYKTTPPVLDSDGSFFLYSKLTVDKSRWQQGNVFSCSVMHEALHNHYTQKSLSLSPG light: DIQMTQSPSSLSASVGDRVTITCRASESVDNYGISFMNWFQQKPGKAPKLLIYAASNQGSGVPSRFSGSGSGTDFTLTISSLQPDDFATYYCQQSKEVPWTFGQGTKVEIKRTVAAPSVFIFPPSDEQLKSGTASVVCLLNNFYPREAKVQWKVDNALQSGNSQESVTEQDSKDSTYSLSSTLTLSKADYEKHKVYACEVTHQGLSSPVTKSFNRGEC | resulted in cellular toxicity |
